Assay results: publication PMC11257983 (2024)

B1: Flag-CNK^2–549 [Drosophila] / GST-HYP [Drosophila] (parent complex)
chain 1: AYINIAEWTPDQVTDWIKGLDESMKGYLYEFSKQEIGGRALLNIRPYELENLGMLRIGHQEIVLEAVENLRNFHYHLKNDNLQFMALHVATAAKNLHRELARNHAESTKIDTRILHDITRTIATLKPLVGSLERTPFRKQEMYREYCGNVLKCGLELATIAHRDRFALQPVPAIRQSAERLENLANFVIQDISDPMVLQPASLNLVTLKKRESELGFNIESSYNGIHRVTDIKYNSPAHNSGKIEDGDEIVQINYQTVVGWQHRTVLEHLREALPDVVLTVKKRPKHTKMFGQIYMQPYRLPSKKRNMAARWAAQMPSPRAAFLTLDTEQLATGGTGSAVPDPSKSLSSEKREVLTKANPVSSASDSDSSCSDIPTPTDPKLAAREIRLYYPKPRALLQRRNTICGCEYLSLKNSDLVVPSWHERKPGIGSPTNCDPGSPSIRDKSISFGYGLEMAARPTTCIGIAGDTSTDKARRMFHEARKLKQLTEDSQREFLVDRYKPGVSKVVRFDAKEDYVMKNEKFICNVENTILETFEPIPFADEGDEDA
chain 2: MGEETINSTQNKTRTKTTRPKAVYLWTVSDVLKWYRRHCGEYTQYEQLFAQHDITGRALLRITDSSLQRMGVTDNRDREAIWREIVKQRLKTDIMEIRDMERLNIY
B2: Myc-MEK [Drosophila] / V5-KSR [Drosophila] (parent complex)
chain 1: MSKNKLNLVLPPVNTEATVAAATVAPTPPFKTPSGTDTHSLLGKPKTSIDALTETLEGLDMGDTERKRIKMFLSQKEKIGELSDEDLEKLGELGSGNGGVVMKVRHTHTHLIMARKLIHLEVKPAIKKQILRELKVLHECNFPHIVGFYGAFYSDGEISICMEYMDGGSLDLILKRAGRIPESILGRITLAVLKGLSYLRDNHAIIHRDVKPSNILVNSSGEIKICDFGVSGQLIDSMANSFVGTRSYMSPERLQGTHYSVQSDIWSLGLSLVEMAIGMYPIPPPNTATLESIFADNAEESGQPTDEPRAMAIFELLDYIVNEPPPKLEHKIFSTEFKDFVDICLKKQPDERADLKTLLSHPWIRKAELEEVDISGWVCKTMDLPPSTPKRNTSPN
chain 2: MSSNNNAPASAPDTGSTNANDPISGSLSVDSNLVIIQDMIDLSANHLEGLRTQCAISSTLTQQEIRCLESKLVRYFSELLLAKMRLNERIPANGLVPHTTGNELRQWLRVVGLSQGTLTACLARLTTLEQSLRLSDEEIRQLLADSPSQREEEELRRLTRAMQNLRKCMESLESGTAASNNDPEQWHWDSWDRPTHIHRGSVGNIGLGNNSTASPRTHHRQHGVKGKNSALANSTNFKSGRQSPSATEELNSTQGSQLTLTLTPSPPNSPFTPSSGLSSSLNGTPQRSRGTPPPARKHQTLLSQSHVQVDGEQLARNRLPTDPSPDSHSSTSSDIFVDPNTNASSGGSSSNVLMVPCSPGVGHVGMGHAIKHRFTKALGFMATCTLCQKQVFHRWMKCTDCKYICHKSCAPHVPPSCGLPREYVDEFRHIKEQGGYASLPHVHGAAKGSPLVKKSTLGKPLHQQHGDSSSPSSSCTSSTPSSPALFQQRERELDQAGSSSSANLLPTPSLGKHQPSQFNFPNVTVTSSGGSGGVSLISNEPVPEQFPTAPATANGGLDSLVSSSNGHMSSLIGSQTSNASTAATLTGSLVNSTTTTSTCSFFPRKLSTAGVDKRTPFTSEYTDTHKSNDSDKTVSLSGSASTDSDRTPVRVDSTEDGDSGQWRQNSISLKEWDIPYGDLLLLERIGQGRFGTVHRALWHGDVAVKLLNEDYLQDEHMLETFRSEVANFKNTRHENLVLFMGACMNPPYLAIVTSLCKGNTLYTYIHQRREKFAMNRTLLIAQQIAQGMGYLHAREIIHKDLRTKNIFIENGKVIITDFGLFSSTKLLYCDMGLGVPHNWLCYLAPELIRALQPEKPRGECLEFTPYSDVYSFGTVWYELICGEFTFKDQPAESIIWQVGRGMKQSLANLQSGRDVKDLLMLCWTYEKEHRPQFARLLSLLEHLPKKRLARSPSHPVNLSRSAESVF

Variants of: B1
Assay: GST pull-down, immunoblot quantification; S2 cells; GST-HYP + RRKM co-expressed; anti-Flag (CNK) blot; parent: 1

Compared with chain 1 K282D, chain 1 D80R is higher in ratio to parent: 0.31 for the first, 1.03 for the second.

chain 1 D80R, chain 1 K282D was tested, and the ratio to parent was 0.73.

Variants of: B1
Assay: GST pull-down, immunoblot quantification; S2 cells; only Flag-CNK2–549 and GST-HYP co-expressed; anti-Flag blot; parent: 1

Compared with chain 1 K282D, chain 1 D80R is higher in ratio to parent: 0.4 for the first, 0.46 for the second.

For chain 1 D80R, chain 1 K282D, the ratio to parent was 1.03.

Variants of: B1
Assay: GST pull-down, immunoblot quantification; S2 cells; GST-HYP + RRKM co-expressed; anti-Flag (CNK) blot; parent: 1
Remark: another data set of the same source

Compared with chain 1 A66F, chain 1 F73R, chain 1 E249R, chain 1 V251R is lower in ratio to parent: 0.58 for the first, 0.08 for the second.

Going from chain 1 F73R, chain 1 E249R to chain 1 F73R, chain 1 V251R, the ratio to parent rises from 0.22 to 0.61.

Going from chain 1 V251R to chain 1 A66F, the ratio to parent rises from 0.68 to 0.87.

First: chain 1 F73R
Second: chain 1 E249R
The ratio to parent of the first is higher: 0.94 for the first, 0.84 for the second.

Variants of: B1
Assay: GST pull-down, immunoblot quantification; S2 cells; only Flag-CNK2–549 and GST-HYP co-expressed; anti-Flag blot; parent: 1
Remark: another data set of the same source

Compared with chain 1 A66F, chain 1 F73R, chain 1 E249R, chain 1 V251R is lower in ratio to parent: 0.12 for the first, 0.05 for the second.

Going from chain 1 F73R, chain 1 E249R to chain 1 F73R, chain 1 V251R, the ratio to parent falls from 0.06 to 0.04.

Going from chain 1 V251R to chain 1 A66F, the ratio to parent rises from 0.07 to 0.29.

Compared with chain 1 F73R, chain 1 E249R is lower in ratio to parent: 0.91 for the first, 0.75 for the second.

Variants of: B1
Assay: GST pull-down, immunoblot quantification; S2 cells; only GST-HYP and Flag-CNK2–549 co-expressed; anti-Flag blot; parent: 1

First: chain 1 I122D
Second: chain 1 I122D, chain 1 L151D
The ratio to parent of the first is higher: 0.17 for the first, 0.12 for the second.

Work on chain 1 L151D yielded a ratio to parent of 0.76.

Variants of: B1
Assay: GST pull-down, immunoblot quantification; S2 cells; GST-HYP, Flag-CNK2–549 + RRKM co-expressed; anti-Flag (CNK) blot; parent: 1

Going from chain 1 I122D to chain 1 I122D, chain 1 L151D, the ratio to parent falls from 0.63 to 0.1.

chain 1 L151D showed a ratio to parent of 0.33.

Variants of: B1
Assay: GST pull-down, immunoblot quantification; S2 cells; GST-HYP, V5-KSR, Myc-MEK co-expressed; anti-Flag (CNK) blot; parent: 1

Compared with chain 1 H263A, chain 1 M196E is lower in ratio to parent: 0.95 for the first, 0.65 for the second.

Going from chain 1 L267R to chain 1 A40F, the ratio to parent falls from 0.85 to 0.79.

Compared with chain 1 T135F, chain 1 R264E is lower in ratio to parent: 0.84 for the first, 0.68 for the second.

First: chain 1 K33D
Second: chain 1 K109E
The ratio to parent of the first is higher: 0.84 for the first, 0.81 for the second.

Variants of: B1
Assay: as above
Remark: another data set of the same source

Going from chain 1 M196E to chain 1 Q199A, the ratio to parent rises from 0.55 to 0.87.

First: chain 1 D194K
Second: chain 1 S193A
The ratio to parent of the first is lower: 0.24 for the first, 0.94 for the second.

First: chain 1 V197E
Second: chain 1 D194K, chain 1 V197E
The ratio to parent of the first is lower: 0.24 for the first, 0.27 for the second.

Variants of: B1
Assay: GST pull-down, immunoblot quantification; S2 cells; only Flag-CNK2–549 and GST-HYP co-expressed; anti-Flag (CNK) blot; parent: 1

First: chain 1 M196E
Second: chain 1 Q199A
The ratio to parent of the first is lower: 0.82 for the first, 0.83 for the second.

Going from chain 1 D194K to chain 1 S193A, the ratio to parent rises from 0.76 to 0.81.

Compared with chain 1 V197E, chain 1 D194K, chain 1 V197E is higher in ratio to parent: 0.77 for the first, 1.03 for the second.

Variants of: B1
Assay: GST pull-down, immunoblot quantification; S2 cells; GST-HYP + RRKM (Ha-RASV12, Pyo-RAF, V5-KSR, Myc-MEK) co-expressed; anti-Flag (CNK) blot; parent: 1

First: chain 1 M196E
Second: chain 1 Q199A
The ratio to parent of the first is lower: 0.34 for the first, 0.72 for the second.

First: chain 1 D194K
Second: chain 1 S193A
The ratio to parent of the first is lower: 0.24 for the first, 0.86 for the second.

With chain 1 V197E the ratio to parent was 0.21.

Variants of: B1
Assay: GST pull-down, immunoblot quantification; S2 cells; only GST-HYP and Flag-CNK2–549 co-expressed; anti-Flag blot; parent: 1
Remark: another data set of the same source

First: chain 2 L90D
Second: chain 2 L90D, chain 2 I97D
The ratio to parent of the first is lower: 0.24 for the first, 0.25 for the second.

Work on chain 2 I97D yielded a ratio to parent of 0.28.

Variants of: B1
Assay: GST pull-down, immunoblot quantification; S2 cells; GST-HYP, Flag-CNK2–549 + RRKM co-expressed; anti-Flag (CNK) blot; parent: 1
Remark: another data set of the same source

Going from chain 2 L90D to chain 2 L90D, chain 2 I97D, the ratio to parent falls from 0.24 to 0.15.

chain 2 I97D showed a ratio to parent of 0.53.

Variants of: B1
Assay: GST pull-down, immunoblot quantification; S2 cells; only Flag-CNK2–549 and GST-HYP co-expressed; anti-Flag (CNK) blot; parent: 1
Remark: another data set of the same source

Going from chain 1 Y75R to chain 1 N81E, the ratio to parent falls from 0.93 to 0.9.

First: chain 1 Q83E
Second: chain 1 R45F
The ratio to parent of the first is higher: 1.12 for the first, 0.73 for the second.

Going from chain 1 R98E to chain 1 N81W, the ratio to parent falls from 1.27 to 0.7.

With chain 1 N95E the ratio to parent was 0.99.

Variants of: B1
Assay: GST pull-down, immunoblot quantification; S2 cells; Flag-CNK2–549, V5-KSR, Myc-MEK, GST-HYP co-expressed; anti-CNK blot; parent: 1

Going from chain 1 Y75R to chain 1 N81E, the ratio to parent falls from 0.73 to 0.24.

Compared with chain 1 Q83E, chain 1 R45F is higher in ratio to parent: 0.4 for the first, 0.79 for the second.

Going from chain 1 R98E to chain 1 N81W, the ratio to parent falls from 0.77 to 0.09.

For chain 1 N95E, the ratio to parent was 0.82.

Variants of: B2
Assay: anti-V5 immunoprecipitation, immunoblot quantification; S2 cells; V5-KSR and Myc-MEK co-expressed; anti-MEK blot; parent: 1

Compared with chain 2 E926R, chain 2 Y925D is lower in ratio to parent: 1.51 for the first, 1.24 for the second.

Compared with chain 2 K903D, chain 2 W896R is lower in ratio to parent: 0.46 for the first, 0.15 for the second.

With chain 2 M902D the ratio to parent was 0.9.

Variants of: B2
Assay: anti-V5 immunoprecipitation, immunoblot quantification; S2 cells; V5-KSR and Myc-MEK co-expressed; anti-Myc (MEK) blot; parent: 1

In the case of chain 1 E323R, the ratio to parent is reported as 0.82.

Variants of: B2
Assay: as above
Remark: another data set of the same source

In the case of chain 2 R913E, the ratio to parent is reported as 1.31.
